Results on 47 variants are retold here after the Human Domainome abundance scans (Beltran et al. 2025).

The chains are these.
B1: Zinc finger homeobox protein 3, residues 2244 to 2299; numbered along this chain, Q15911 (parent)
chain: SSRTRFTDYQLRVLQDFFDANAYPKDDEFEQLSNLLNLPTRVIVVWFQNARQKARK

± gives the uncertainty stated by the source.

The data set covers variants of B1. Kind of data set: abundance fitness (aPCA) (normalised: wild type 0, dead -1); higher = more abundant; growth selection in yeast, the domain comes from the species named. Particulars: Homo sapiens.
On to SSRTRFTDYQLRVLQDFFDANADPKDDEFEQLSNLLNLPTRVIVVWFQNARQKARK, for which the abundance fitness was -0.018 ± 0.13.

On to SSRTRFTDYQLRVLQDFFDANARPKDDEFEQLSNLLNLPTRVIVVWFQNARQKARK, for which the abundance fitness is -0.019 ± 0.068.

Turning to SSRTRFTDYQLRVLQDFFDANAGPKDDEFEQLSNLLNLPTRVIVVWFQNARQKARK, the abundance fitness was -0.332 ± 0.068.

SSRTRFTDYQLVVLQDFFDANAYPKDDEFEQLSNLLNLPTRVIVVWFQNARQKARK: the abundance fitness was -0.466 ± 0.079.

For SSRTRFTDYQLNVLQDFFDANAYPKDDEFEQLSNLLNLPTRVIVVWFQNARQKARK, the abundance fitness was 0.035 ± 0.086.

In the case of SSRTRFTDYQLPVLQDFFDANAYPKDDEFEQLSNLLNLPTRVIVVWFQNARQKARK, the abundance fitness is -0.794 ± 0.088.

Consider SSRTRFTDYQLRVLQDFFDANAYPKDDEFEQLSNLLNLPTRVIVVFFQNARQKARK, for which the abundance fitness is -0.244 ± 0.19.

Turning to SSRTRFTDYQLRVLQDFFDANAYPKDDEFEQLSNLLNLPTRVIVVEFQNARQKARK, the abundance fitness was -0.749 ± 0.13.

Take SSRTRFTDYQLRVLQDFFDANAYPKDDEFEQLSNLLNLPLRVIVVWFQNARQKARK: the abundance fitness is -0.105 ± 0.073.

As to SSRTRFTDYQLRVLQDFFDANAYPKDDEFEQLSNLLNLPIRVIVVWFQNARQKARK, the abundance fitness is -0.175 ± 0.092.

Turning to SSRTRLTDYQLRVLQDFFDANAYPKDDEFEQLSNLLNLPTRVIVVWFQNARQKARK, the abundance fitness is -0.321 ± 0.067.

In the case of SSRTRFTDYQLRVLQDFFDANAYPKGDEFEQLSNLLNLPTRVIVVWFQNARQKARK, the abundance fitness is -0.247 ± 0.096.

Regarding SSRTRFTDYQLRVLQDFFDANAYPKYDEFEQLSNLLNLPTRVIVVWFQNARQKARK, the abundance fitness was -0.105 ± 0.15.

In the case of SSRTRFTDYQLRVLQDFFDANAYPKDDMFEQLSNLLNLPTRVIVVWFQNARQKARK, the abundance fitness was -0.347 ± 0.14.

With SSRTRFTDYQLRVLQDFFDANAYPKDDCFEQLSNLLNLPTRVIVVWFQNARQKARK, the abundance fitness was -0.539 ± 0.2.

As to SSRTRFTDYQLRVLQFFFDANAYPKDDEFEQLSNLLNLPTRVIVVWFQNARQKARK, the abundance fitness was -0.596 ± 0.26.

On to SSRTRFTDYQLRVLQHFFDANAYPKDDEFEQLSNLLNLPTRVIVVWFQNARQKARK, for which the abundance fitness amounted to 0.033 ± 0.15.

As for SSRTRFTDYQLRVLQTFFDANAYPKDDEFEQLSNLLNLPTRVIVVWFQNARQKARK, the abundance fitness is -0.114 ± 0.16.

Turning to SSRTRFTDYQLRVLQDFFDANAYPKDDEFEQLSNLLNLPTRVIFVWFQNARQKARK, the abundance fitness was -0.174 ± 0.32.

With SSRTRFTDYQLRVLQDFFDANAYPFDDEFEQLSNLLNLPTRVIVVWFQNARQKARK, the abundance fitness is -0.338 ± 0.21.

On to SSRTRFTDYQLRVLQDFFDANAYPKDTEFEQLSNLLNLPTRVIVVWFQNARQKARK, for which the abundance fitness was -0.078 ± 0.091.

Turning to SSRTRFTDYQLRVLQDFFDANAYPKDSEFEQLSNLLNLPTRVIVVWFQNARQKARK, the abundance fitness is -0.077 ± 0.081.

On to SSRTRFTDYQLRVLQDFFDANAYPKDDEFEQLSNLLNLPTRVIVMWFQNARQKARK, for which the abundance fitness is -0.142 ± 0.083.

As to SSRTRFTDYALRVLQDFFDANAYPKDDEFEQLSNLLNLPTRVIVVWFQNARQKARK, the abundance fitness is -0.649 ± 0.092.

For SSRTRFTDYKLRVLQDFFDANAYPKDDEFEQLSNLLNLPTRVIVVWFQNARQKARK, the abundance fitness is -0.924 ± 0.17.

As for SSRTRFTDYDLRVLQDFFDANAYPKDDEFEQLSNLLNLPTRVIVVWFQNARQKARK, the abundance fitness is -0.631 ± 0.16.

Take SSRTRFTDYFLRVLQDFFDANAYPKDDEFEQLSNLLNLPTRVIVVWFQNARQKARK: the abundance fitness is -0.569 ± 0.24.

SSRFRFTDYQLRVLQDFFDANAYPKDDEFEQLSNLLNLPTRVIVVWFQNARQKARK: the abundance fitness was found to be 0.03 ± 0.17.

SSRDRFTDYQLRVLQDFFDANAYPKDDEFEQLSNLLNLPTRVIVVWFQNARQKARK: the abundance fitness was found to be 0.117 ± 0.21.

For SSRLRFTDYQLRVLQDFFDANAYPKDDEFEQLSNLLNLPTRVIVVWFQNARQKARK, the abundance fitness was -0.116 ± 0.11.

In the case of SSRTAFTDYQLRVLQDFFDANAYPKDDEFEQLSNLLNLPTRVIVVWFQNARQKARK, the abundance fitness was found to be 0.213 ± 0.071.

As for SSRTRFTDYQLRVLQDFFDANAYVKDDEFEQLSNLLNLPTRVIVVWFQNARQKARK, the abundance fitness is -0.657 ± 0.22.

For SSRTRFTDYQLRVLFDFFDANAYPKDDEFEQLSNLLNLPTRVIVVWFQNARQKARK, the abundance fitness was -0.299 ± 0.17.

For SSRTRFTDYQLRVLQDFFDANAYPKDDEFEQLSDLLNLPTRVIVVWFQNARQKARK, the abundance fitness is -0.199 ± 0.26.

SSRTRFTDYQLRVLQDFFDANAYPKDDEFEQLSCLLNLPTRVIVVWFQNARQKARK: the abundance fitness is -0.343 ± 0.29.

In the case of SSRTRFTDYQLRVLQDFFDANAYPKDDEFEQLSNLLNLPTRVIVVWFQTARQKARK, the abundance fitness was -0.119 ± 0.11.

For the variant SSRTRFTDYQLRVLQDFFDANAYPKDDEFEQLSNLLNLPTRVIVVWFQMARQKARK, the abundance fitness is -0.287 ± 0.15.

As for SSRTRFTDYQLRVLQDFFDANAYPKDDEFEQLSNLLNLPTRVIVVWFQFARQKARK, the abundance fitness was -0.581 ± 0.28.

SSRTRFTDYQLRVLQDFFDANAYPKDDEFEQLSNLLNLPTRVRVVWFQNARQKARK: the abundance fitness was -0.837 ± 0.094.

Regarding SSRTRFTDYQLRVLQDFFDANAYPKDDEFEQLSNLLNLPTRVHVVWFQNARQKARK, the abundance fitness is -1.13 ± 0.28.

On to SSRTRFTDYQLRVLQDFFDANAYPKDDEFEQLSNLLNLPTRVLVVWFQNARQKARK, for which the abundance fitness is -0.163 ± 0.11.

In the case of SSRTRFTDYQLRVLQDFFDANAYPKDDEFEQLSNLLNLPTRVAVVWFQNARQKARK, the abundance fitness is -0.56 ± 0.11.

Turning to SSRTRFTDYQLRVLQDFFDANAYPKDDEFEQLSNLLNLPTRVVVVWFQNARQKARK, the abundance fitness is -0.056 ± 0.1.

On to SSRTRFTDYQLRVLQDNFDANAYPKDDEFEQLSNLLNLPTRVIVVWFQNARQKARK, for which the abundance fitness is -0.125 ± 0.16.

With SSRTRFTDYQLRVLQDQFDANAYPKDDEFEQLSNLLNLPTRVIVVWFQNARQKARK, the abundance fitness is -0.47 ± 0.14.

As for SSRTRFTDYQLRVLQDRFDANAYPKDDEFEQLSNLLNLPTRVIVVWFQNARQKARK, the abundance fitness turned out to be 0.084 ± 0.076.

Turning to SSRTRFTDYQLRVLQDCFDANAYPKDDEFEQLSNLLNLPTRVIVVWFQNARQKARK, the abundance fitness is -0.222 ± 0.15.
